Test in all cases: cross-linking
Assay [1] addresses hamster IgG1 anti-CD3E antibody (145-2C11) (hamster).
The target of assay [2] is human IgG1 (human) [IgG part: P01857].
The target of assay [3] is human IgG2 isotype control antibody (human) [IgG part: P01859].
Assay [4] concerns the target human IgG4 isotype control antibody (human) [IgG part: P01861].
Assay [5] concerns the target human IgG1 (human) [IgG part: P01857]. This is another data set of the same source.
The target in another assay is mouse IgG2a (mouse).
Assay [6] deals with mouse IgG2b isotype control antibody (mouse) (UniProt P01867).
Another assay has as its target mouse IgG3 (mouse).
Assay [7] has as its target rat IgG2b anti-ICAM1 antibody (YN-1) (rat) (UniProt P20761).
Assay [8] has as its target rat IgG2c isotype control antibody (rat) (UniProt P20762).
Assay [9] concerns the target mouse IgG1 (mouse) [IgG part: P01868].
For assay [10], the target named is rat IgG1 isotype control antibody (rat).
Assay [11] addresses mouse IgG1 (mouse) [IgG part: P01868]. The source holds these as a separate data set.

Where two headings read alike, the source gives them in different places.

UniProt P20762, sequence (P20762 whole entry, looked up): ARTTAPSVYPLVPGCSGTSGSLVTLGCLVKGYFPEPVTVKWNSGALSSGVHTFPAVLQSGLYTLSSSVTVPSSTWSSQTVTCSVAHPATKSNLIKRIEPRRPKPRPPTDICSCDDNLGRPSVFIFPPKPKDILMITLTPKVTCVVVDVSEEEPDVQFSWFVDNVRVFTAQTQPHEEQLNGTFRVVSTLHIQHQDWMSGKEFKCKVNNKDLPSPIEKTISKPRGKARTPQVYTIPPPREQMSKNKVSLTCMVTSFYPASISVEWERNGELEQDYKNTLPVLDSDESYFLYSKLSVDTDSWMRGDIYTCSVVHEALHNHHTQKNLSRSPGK
UniProt P20761, sequence (P20761 whole entry, looked up): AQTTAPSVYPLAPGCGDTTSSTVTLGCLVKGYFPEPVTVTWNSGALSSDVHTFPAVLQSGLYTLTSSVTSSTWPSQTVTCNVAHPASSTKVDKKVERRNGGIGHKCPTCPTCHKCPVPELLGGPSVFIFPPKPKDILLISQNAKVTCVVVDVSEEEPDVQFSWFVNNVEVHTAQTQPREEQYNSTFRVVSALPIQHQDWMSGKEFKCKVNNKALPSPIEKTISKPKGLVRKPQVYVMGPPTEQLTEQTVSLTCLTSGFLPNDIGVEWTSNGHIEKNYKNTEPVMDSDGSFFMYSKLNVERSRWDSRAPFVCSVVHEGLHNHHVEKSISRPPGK

On to “Protein Z K35BPA variant (designed binder)”, for which the percent of heavy chains cross-linked (1 h UV) in assay [1] is 30%; in [2], 47%; in assay [3], 17%; in [4], 50%; in [5] it was 50%. Moreover, in assay [2], the percent of heavy chains cross-linked (2 h UV) was greater than 55%. The percent of intact IgG cross-linked (1 h UV) in [2] was found to be 60%. The same substance had a percent of intact IgG cross-linked (2 h UV) in assay [2] greater than 70%.

On to “Protein Z K35BPA variant with the background F5I mutation (designed binder)”, for which the percent of heavy chains cross-linked (1 h UV) in [1] stood at 37%.

Consider “Protein Z L17BPA variant (designed binder)”, for which, in the assay with mouse IgG2a (mouse), the percent of heavy chains cross-linked (1 h UV) worked out at 60%. In assay [6], the percent of heavy chains cross-linked (1 h UV) was 71%. Further, in the assay with mouse IgG3 (mouse), the percent of heavy chains cross-linked (15 min UV) was greater than 70%, the percent of heavy chains cross-linked (1 h UV) is 80%, the percent of heavy chains cross-linked (2 h UV) was determined as 90% and the percent of intact IgG cross-linked (15 min UV) was determined as 90%. In the assay with mouse IgG3 (mouse), this substance yielded a percent of intact IgG cross-linked (1 h UV) greater than 95% and a percent of intact IgG cross-linked (2 h UV) greater than 96%. For the same substance, the percent of heavy chains cross-linked (1 h UV) in assay [7] was determined as 20%. Besides, in assay [8], the percent of heavy chains cross-linked (1 h UV) came to 60%.

For the substance “Protein Z Q32BPA variant (designed binder)”, the percent of heavy chains cross-linked (1 h UV) in assay [1] stood at 20%; in [2] it was 37%; in assay [3], 12%; in assay [9], 50%; in assay [10] it was 10%; in assay [11] it was 50%. The percent of heavy chains cross-linked (2 h UV) in assay [9] was greater than 55%. This substance yielded a percent of intact IgG cross-linked (1 h UV) in assay [9] of 60%. This substance also yielded a percent of intact IgG cross-linked (2 h UV) in [9] greater than 70%.

Values taken from article PMC4166039.
